# Tested on: Bacillus subtilis
# Experiment: cleaved RNA product abundance (RNA/gDNA barcode ratio) relative to median wild-type variant (ratio to wild type); higher = more accumulation of the downstream cleavage product
# Conditions: experiment (reporter, strain, medium): exp 8a: truncated aprE reporter, strain BJT201 with 2% xylose (RNase J1 expressed); cleavage site: glnRA (positions -5 to +31 mutated)
# Summary of the method: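 The B. subtilis chromosome carried reporter mRNAs, truncated aprE or tetM, containing barcoded RNase Y cleavage-site windows mutagenized using oligos with a 9% error rate. After growth in LB at 37°C from OD600 0.0003 to 0.3, cleaved RNA was gel-selected, reverse transcribed and barcode-sequenced next to genomic DNA barcodes, with UMI collapsing. Each construct's RNA:gDNA barcode ratio was scaled to the median construct with the unmutated site. That scaled ratio is reported as cleaved product abundance.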
row,Sequence,cleaved RNA product abundance
1,CGACATGTCCCGCTTCTTTCATTAATCCGTTAGCAAATGTTTTGCTATATACATTTACTTTTTAAGAGGAGGAAT,1.2
2,CGACATGTCCCGCTTCTTTCATTAATCCGTTAGCAAATGTTTTGCTATATACATTTTCCTTTTAAGAGGAGGAAT,0.6
3,CGACATGTCCCGCTTCTTTCATTAATCCGTTAGCAAATGTTTTGCTATATACTTTTACCTTTTAAGAGGAGGAAT,1.13
4,CGACATGTCCCGCTTCTTTCATTAATCCGTTAGCAAATGTTTTGCTTTATACATTTACCTTTTAAGAGGAGGAAT,0.298
5,CGACATGTCCCGCTTCTTTCATTAATCCGTTAGCAAATGTTTTGTTATATACATTTACCTTTTAAGAGGAGGAAT,0.554
6,CGACATGTCCCGCTTCTTTCATTAATCCGTTAGCAAATGTTTTTCTATATACATTTACCTTTTAAGAGGAGGAAT,0.753
7,CGACATGTCCCGCTTCTTTCATTAATCCGTTAGCAAATTTTTTGCTATATACATTTACCTTTTAAGAGGAGGAAT,1.19
8,CGACATGTCCCGCTTCTTTCATTAATCCGTTAGCAACAATTTTGCTATATACATTTACCTTTTAAGAGGAGGAAT,1.04
9,CGACATGTCCCGCTTCTTTCATTAATCCGTTAGCAACAGATTTGCTATATACATTTACCTTTTAAGAGGAGGAAT,0.68
10,CGACATGTCCCGCTTCTTTCATTAATCCGTTAGCAACAGGTTTGCTATATACATTTACCTTTTAAGAGGAGGAAT,0.389
11,CGACATGTCCCGCTTCTTTCATTAATCCGTTAGCAACAGTTTTACTATATACATTTACCTTTTAAGAGGAGGAAT,0.561
12,CGACATGTCCCGCTTCTTTCATTAATCCGTTAGCAACAGTTTTGATATATACATTTACCTTTTAAGAGGAGGAAT,0.429
13,CGACATGTCCCGCTTCTTTCATTAATCCGTTAGCAACAGTTTTGCTATACACATTTACCTTTTAAGAGGAGGAAT,0.557
14,CGACATGTCCCGCTTCTTTCATTAATCCGTTAGCAACAGTTTTGCTATATAAATTTACCTTTTAAGAGGAGGAAT,0.69
15,CGACATGTCCCGCTTCTTTCATTAATCCGTTAGCAACAGTTTTGCTATATACAATTACCTTTTAAGAGGAGGAAT,0.601
16,CGACATGTCCCGCTTCTTTCATTAATCCGTTAGCAACAGTTTTGCTATATACATATACCTTTTAAGAGGAGGAAT,1.16
17,CGACATGTCCCGCTTCTTTCATTAATCCGTTAGCAACAGTTTTGCTATATACATTTAACTTTTAAGAGGAGGAAT,0.916
18,CGACATGTCCCGCTTCTTTCATTAATCCGTTAGCAACAGTTTTGCTATATACATTTACCATTTAAGAGGAGGAAT,0.522
19,CGACATGTCCCGCTTCTTTCATTAATCCGTTAGCAACAGTTTTGCTATATACATTTACCTTTTAAGAGGAGGAAT,0.814
20,CGACATGTCCCGCTTCTTTCATTAATCCGTTAGCAACAGTTTTGCTATATACATTTACGTTTTAAGAGGAGGAAT,2.01
21,CGACATGTCCCGCTTCTTTCATTAATCCGTTAGCAACAGTTTTGCTATATACATTTACTTTTTAAGAGGAGGAAT,1.18
22,CGACATGTCCCGCTTCTTTCATTAATCCGTTAGCAACAGTTTTGCTATATACATTTAGCTTTTAAGAGGAGGAAT,0.489
23,CGACATGTCCCGCTTCTTTCATTAATCCGTTAGCAACAGTTTTGCTATATACATTTTCCTTTTAAGAGGAGGAAT,0.423

row,Sequence,cleaved RNA product abundance
1,CGACATGTCCCGCTTCTTTCATTAATCCGTTAGCAACAGTTTTGCTATATATATTTACCTTTTAAGAGGAGGAAT,0.588
2,CGACATGTCCCGCTTCTTTCATTAATCCGTTAGCAACAGTTTTTCTATATACATTTACCTTTTAAGAGGAGGAAT,0.345
3,CGACATGTCCCGCTTCTTTCATTAATCCGTTAGCAACATTTTTGCTATATACATTTACCTTTTAAGAGGAGGAAT,1.12
4,CGACATGTCCCGCTTCTTTCATTAATCCGTTAGCAACCCTTTTGCTATATACATTTACCTTTTAAGAGGAGGAAT,0.451
5,CGACATGTCCCGCTTCTTTCATTAATCCGTTAGCAACCGTGTTACTATATAAATTTACCTTTTAAGAGGAGGAAT,0.271
6,CGACATGTCCCGCTTCTTTCATTAATCCGTTAGCAACCGTTATGCTATATACATTTACCTTTTAAGAGGAGGAAT,0.316
7,CGACATGTCCCGCTTCTTTCATTAATCCGTTAGCAACCGTTTTGCAATATACATTTACCTTTTAAGAGGAGGAAT,0.344
8,CGACATGTCCCGCTTCTTTCATTAATCCGTTAGCAACCGTTTTGCTAAATACATTTACCTTTTAAGAGGAGGAAT,0.432
9,CGACATGTCCCGCTTCTTTCATTAATCCGTTAGCAACCGTTTTGCTATATACATTTACATTTTAAGAGGAGGAAT,0.523
10,CGACATGTCCCGCTTCTTTCATTAATCCGTTAGCAACCGTTTTGCTATATACATTTACCTTTTAAGAGGAGGAAT,0.617
11,CGACATGTCCCGCTTCTTTCATTAATCCGTTAGCAACCGTTTTGCTTTATACATTTACCTTTTAAGAGGAGGAAT,0.145
12,CGACATGTCCCGCTTCTTTCATTAATCCGTTAGCAACCGTTTTGGTATATACATTTACCTTTTAAGAGGAGGAAT,0.187
13,CGACATGTCCCGCTTCTTTCATTAATCCGTTAGCAACCGTTTTTCTATATACATTTACCTTTTAAGAGGAGGAAT,0.384
14,CGACATGTCCCGCTTCTTTCATTAATCCGTTAGCAACCTTTTTGCTATATACATTTACCTTTTAAGAGGAGGAAT,1.44
15,CGACATGTCCCGCTTCTTTCATTAATCCGTTAGCAACGGTTGTGCTATATACATTTACCTTTTAAGAGGAGGAAT,0.353
16,CGACATGTCCCGCTTCTTTCATTAATCCGTTAGCAACGGTTTTACTATATACATTTACCTTTTAAGAGGAGGAAT,0.495
17,CGACATGTCCCGCTTCTTTCATTAATCCGTTAGCAACGGTTTTGATATATACATTTACCTTTTAAGAGGAGGAAT,0.515
18,CGACATGTCCCGCTTCTTTCATTAATCCGTTAGCAACGGTTTTGCCATATACATTTACCTTTTAAGAGGAGGAAT,0.202
19,CGACATGTCCCGCTTCTTTCATTAATCCGTTAGCAACGGTTTTGCTATATACATTTACCTTTTAAGAGGAGGAAT,0.387
20,CGACATGTCCCGCTTCTTTCATTAATCCGTTAGCAACGGTTTTGTTATATACATTTACCTTTTAAGAGGAGGAAT,0.364
21,CGACATGTCCCGCTTCTTTCATTAATCCGTTAGCAACTAATTTGCTATATACATTTACCTTTTAAGAGGAGGAAT,1.85
22,CGACATGTCCCGCTTCTTTCATTAATCCGTTAGCAACTAGTTTGCTATATACATTTACCTTTTAAGAGGAGGAAT,1.29
23,CGACATGTCCCGCTTCTTTCATTAATCCGTTAGCAACTATATTGCTATATACATTTACCTTTTAAGAGGAGGAAT,1.45

# Source: the supplement of paper PMC11780869
